B1: mRNA-splicing (parent)
chain: AGUUGCUGCUGGGAGCUCCAGCACAGUGAAAUGGACAGAAGGGCAGAGCAA

Variants of: B1
Experiment: exon inclusion enrichment index; higher = more inclusion; WT1 exon 5 minigene, HEK293

Variant | exon inclusion enrichment index
G5A U7C G8A U10C A29U A30G | 2.78
G5U G8U C9U C24G | 0.199
G5C C6U G8C C9U U10C A35G C36A | 1.07
C6A U7C C9A U10C G42C G43U | 3.6
G5C C6U U7A G8A U10A | 0.064
U4G G5A C6U U7A G8U C9A | 0.156
G5A C6G U7G C9A G33C G34U | 0.00222
G2A C6A U7C C9A U10C | 4.19
C6A U7A C9A U10A G41A G42C | 1.25
G5C C6G U7C U10C G12C G13U | 0.128
G5C C6U G8C C9U U10C G38A A39G | 1.85
U4G C6U U7A G8U C9A | 0.0761
G5C C6A U7C G8A U10A A25U G26U | 0.111
C6A U7C C9A U10C A30G A31C | 0.677
G5U G8U C9U G43C C44G | 1.3
G5U G8U C9U U27G G28C | 0.027
G5A U7C G8A U10C U32A G33U | 1.68
C6A U7A C9A U10A G26U U27A | 0.264
C6A U7C C9A U10C G33C G34U | 2.34
U4C G5U C6A U7A C9A U10A | 0.296
C19A A20U | 1.14
G5C C6A U7C G8A U10A G26A U27C | 0.555
C6A U7A C9A U10A G21A | 0.506
C6A U7A C9A U10A U27G G28A | 0.869

Variant | exon inclusion enrichment index
G5C C6G U7G G8C U10C | 1.57
G5C C6U G8C C9U U10C G15U C16A | 1.38
G5C C6U G8C C9U U10C G15U C16G | 1.44
G5A C6U U7A G8U C9A C19G A20C | 0.0894
G5A C6G U7G C9A A25G G26A | 0.0192
G5C C6U G8C C9U U10C C18G C19G | 2.78
G5U G8U C9U G26C U27C | 0.621
U17C C18A | 1.29
U4C G5A C6A U7A C9A U10A | 0.662
G5C C6G U7C C9G U10A | 2.85
G5C C6G U7C U10C G38A A39U | 0.365
G5U G8U C9U A40C | 0.385
G5A C6U U7A G8U C9A C22A | 0.0781
C22G | 2.76
G5C C6A U7C G8A U10A C16G U17G | 0.00731
C6A U7A C9U U10C | 1.36
C6A U7A C9A U10A A37U G38C | 0.667
G5A U7C G8A U10C A45U | 2.8
C6A U7C C9G | 1.05
A45U G46C | 0.0947
G5C C6G U7C U10C A25C | 4.98
C6A G8A C9A U10C | 0.666
G5A U7C G8A U10C U32G G33A | 0.707
G5A U7C G8A U10C U32G G33C | 2.16

Variant | exon inclusion enrichment index
G5C C6G U7C U10C G43U C44G | 0.713
G5A U7C G8A U10C U17C C18A | 1.54
G5A U7C G8A U10C U17C C18U | 1.85
G5U G8U C9U A23G | 0.252
G5U G8U C9U A37U G38A | 0.0389
G5C C6U G8C C9U U10C G28U A29G | 1.84
G5C C6G U7C U10C G33C | 3.55
G5A C6G U7G C9A G12C G13U | 0.000686
G5A C6U U7A G8U C9A C36U | 0.00462
G5U C6U G8U C9U | 0.0204
G5A C6G U7G C9A G11C | 0.00307
G5A U7C C9G U10C | 2.65
G2C U3A G5A C6U U7A G8U C9A | 0.0584
U3G U4G G5C C6G U7C U10C | 0.836
G5C C6U G8C C9U U10C A31C U32C | 3.49
A40G G41A | 0.0243
C6A U7C C9A U10C C19A A20G | 0.968
G5C C6G U7C U10C A25C G26C | 4.35
G5A C6U U7A G8U C9A G43A | 0.454
C16U U17C | 0.038
G5C C6A U7C G8A U10A G21A C22A | 0.0529
C6A U7A C9A U10A A45G G46U | 0.543
G5U G8U C9U C19G A20U | 0.14
C6A U7C C9A U10C G15C C16U | 3.32

Variant | exon inclusion enrichment index
C6A U7A G8U C9A | 0.467
G5A U7C G8A U10C A29G A30G | 1.92
G33C G34C | 0.0456
G5U G8U C9U G41A G42U | 0.115
G5A U7C G8A U10C A14G G15A | 1.8
G5U G8U C9U U10A G11A | 0.0324
U4A G8U C9U | 0.0172
A29G A30U | 0.0289
G5A C6U U7A G8U C9A C44G A45G | 0.0089
G5A U7C G8A U10C A29C A30G | 3.21
G5A C6G U7G C9A U10A G11A | 0.00112
G5A U7C G8A U10C C19A | 1.39
G5C C6A U7C G8A U10A G28C | 0.0496
A30U A31C | 0.202
A30U A31G | 0.155
G5C C6A U7C G8A U10A A40U G41A | 0.00421
G5C C6A U7C G8A U10A A40U G41U | 0.0362
G5C C6G U7C U10C U27A G28C | 3.86
G5C C6U G8C C9U U10C G12A | 0.889
G5A C6G U7G C9A U10G G11A | 0.00349
C16G U17C | 0.114
C6A U7C C9A U10C G41C G42U | 3.52
C6A U7A C9A U10A G42A G43U | 2.73
G2A U3C G5A C6G U7G C9A | 0.0183

Variant | exon inclusion enrichment index
U3C G5C C6U G8C C9U U10C | 0.338
G5C C6U G8C C9U U10C C24A A25C | 3.4
G5C C6A U7C G8A U10A G42U G43A | 0.386
G5A C6U U7A G8U C9A A40C G41C | 0.455
G5U G8U C9U G12A | 0.0372
G5A C6U U7A G8U C9A G38A A39U | 0.00385
C6A U7C C9A U10C G38A A39C | 2.55
G5A C6G U7G C9A G46A A47C | 0.00647
U3G U4C C6A U7A C9A U10A | 1.04
C9A | 1.96
G5U G8U C9U G34A | 0.0562
G5C C6G U7C U10C C18U C19G | 2.78
C6A U7C C9A U10C C22A A23C | 3.88
G5A C6U U7A G8C C9U | 0.218
G5C C6G U7C U10C G42C | 4.75
G5A C6G U7G C9A C36A A37G | 0.00191
G5C C6G U7C U10C A35G | 1.93
G5A C6U U7A G8U C9A A35G C36A | 0.0117
C16A U17G | 0.0435
G5A C6G U7G C9A G26C U27C | 0.0114
C6A U7C C9A U10C A39U A40U | 1.76
U4A G5A C6A U7C C9A U10C | 2.23
G5A C6G U7G C9A C18U | 0.000744
G2A U3G | 0.0392

Variant | exon inclusion enrichment index
G5U G8U C9U U27C G28U | 0.0729
C6A U7C C9A U10C A47U | 2.86
G5C C6G U7C U10C G28U | 1.05
C6A U7C C9A U10C G38C A39C | 3
G5A C6U U7A G8U C9A G43C C44A | 0.403
G5C C6G U7C U10C A14C G15U | 1.33
G5C C6A U7C G8A U10A A20G | 0.306
G5A U7C G8A U10C A47G | 0.395
G5A C6U U7A G8U C9A G11A | 0.00945
G5C C6U G8C C9U U10C G38U A39U | 0.0819
G5C C6G U7C U10C G33A G34U | 0.979
G5A C6G U7G C9A U17G C18A | 0.00242
G5C C6A U7C G8A U10A A29G A30C | 0.0319
C6A U7A C9A U10A G34C A35G | 0.484
G5C C6G U7C U10C G26C U27G | 4.43
G5U G8U C9U G21C C22G | 0.384
G5A C6G U7G C9A U32A G33C | 0.0011
C6A U7C C9A U10C G38U A39U | 0.32
C6A U7C C9A U10C A40G G41C | 3.6
G5C C6G U7C U10C G21C C22A | 3.02
C6A U7A C9A U10A A30U A31G | 0.653
C6A U7C C9A U10C A29U A30G | 3.55
G5C C6G U7C U10C A39C A40U | 1.72
C6A U7C C9A U10C A20C G21A | 2.38

Variant | exon inclusion enrichment index
G5A U7C G8A U10C G28A A29C | 1.44
G5A C6U U7A G8U C9A U10C | 0.4
G5C C6G U7C U10C A20G G21A | 3.62
A31C | 0.288
G5A C6G U7G C9A A30G | 0.00525
C6A U7C C9A U10C G46U A47C | 3.45
C6A U7A C9A U10A G42C G43U | 1.96
G2A U3A G5U G8U C9U | 0.155
G5A C6G U7G C9A A37G | 0.00135
G5A C6G U7G C9A A39U A40G | 0.00317
G5C C6U U10C | 1.82
G11C | 2.05
G5A U7C G8U C9A | 0.658
G5A U7C G8A U10C C36G A37U | 1.08
G2U U3C G5A C6U U7A G8U C9A | 0.557
G5A C6G U7G G8U C9A | 0.00192
C6A U7A C9A U10A G33A G34U | 0.0565
C6A U7A C9A U10A A25U G26U | 0.734
G42U G43C | 0.112
C6A U7C C9A U10C G41A G42A | 2.59
C6A U7C C9A U10C G41A G42C | 3.64
G5C C6G U7C U10C C22U A23U | 2.76
U4G C6A U7C C9A U10C | 2.45

From the RNAGym collection of RNA variant scans (doi:10.1101/gr.219683.116)
